Measurements reported in article PMC4267838.

Molecular target: histone deacetylase 5 (rat (endogenous in Sprague-Dawley rat cardiac myocytes))
Assay: co-IP; HDAC5 precipitated from equal amounts of cardiac myocyte nuclear extracts, 14-3-3 detected by western blotting; cells treated with vehicle, ET1 (0.1 µM), PPAR ligands (troglitazone 1 µM, fenofibrate 10 µM, GW501516 1 µM), with or without shRNA knockdown of DGKζ

14-3-3 chaperone proteins (from UniProt P63102 1-245) (natural protein)
percent of normalized 14-3-3 in HDAC5 precipitates of ET1-treated cells vs. vehicle-treated control (% vs. control): 138
